Experimental data from US20070066522A1 (MICHIGAN STATE UNIVERSITY, published 2007).

Biological target: T1, c-Cbl (endogenous, in PH3MT cell lysates) (human, UniProt P22681 1-906)
T1 construct: also called c-Cbl E3 ubiquitin ligase; CB1
Test: method not described; Ras-transformed cells

binding result: binds
B1: Sprouty2 (endogenous, in PH3MT human fibroblast lysates) (other)
chain: MEARAQSGNGSQPLLQTPRDGGRQRGEPDPRDALTQQVHVLSLDQIRAIRNTNEYTEGPTVVPRPGLKPAPRPSTQHKHERLHGLPEHRQPPRLQHSQVHSSARAPLSRSISTVSSGSRSSTRTSTSSSSSEQRLLGSSFSSGPVADGIIRVQPKSELKPGELKPLSKEDLGLHAYRCEDCGKCKCKECTYPRPLPSDWICDKQCLCSAQNVIDYGTCVCCVKGLFYHCSNDDEDNCADNPCSCSQSHCCTRWSAMGVMSLFLPCLWCYLPAKGCLKLCQGCYDRVNRPGCRCKNSNTVCCKVPTVPPRNFEKPT
notes: Endogenous protein of the H-Ras-transformed human fibroblast strain PH3MT; also called Spry2; human Sprouty-2
